Tests used:
[1] = molecular target: evolved PTH1R variant P34_05 (human) (UniProt Q03431); assay: AlphaScreen or HTRF; binding of 40 nM M-PTH(1–14) to membrane fractions supplemented with increasing concentrations of mini-Gs; data relative to PTH1R without mini-Gs; EC50 of mini-Gs read through ligand occupancy, apparent
[2] = molecular target: evolved PTH1R variant P34_13 (human) (UniProt Q03431); assay: as above
[3] = molecular target: SNAP-tagged NTR1-R167L (rat) (UniProt P20789); assay: AlphaScreen or HTRF; whole HEK293T cells with SNAP-Lumi4-Tb-labelled NTR1; 2 nM HL488-NT(8–13) tracer with a range of unlabeled NT(8–13); 4 h on ice; 20 mM HEPES pH 7.5, 100 mM NaCl, 3 mM MgCl2, 0.02% BSA
Sequence of UniProt P20789 (P20789 43-424 R167L): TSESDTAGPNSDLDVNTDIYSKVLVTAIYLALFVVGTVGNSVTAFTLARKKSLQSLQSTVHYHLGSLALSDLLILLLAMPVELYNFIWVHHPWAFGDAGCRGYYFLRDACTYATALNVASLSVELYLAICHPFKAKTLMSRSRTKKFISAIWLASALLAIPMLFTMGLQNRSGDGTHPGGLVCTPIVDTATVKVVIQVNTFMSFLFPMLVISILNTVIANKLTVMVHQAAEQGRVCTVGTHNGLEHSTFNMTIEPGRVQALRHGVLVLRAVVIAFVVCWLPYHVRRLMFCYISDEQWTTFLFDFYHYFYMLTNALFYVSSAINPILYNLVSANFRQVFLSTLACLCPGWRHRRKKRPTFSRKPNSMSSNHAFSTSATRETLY

Row | Substance | EC50 [1] [nM] | EC50 [2] [nM] | fold increase in affinity against wild-type NTR1 [3] [fold]
1 | Mini-Gs 393 | 280 | 380 | –
2 | Neurotensin 8–13 (peptide) | – | – | 3

Source: publication PMC10063554
